Laboratory results: paper PMC3856062

Biological target: CFP-SelM′ (human) (UniProt Q8WWX9)
Experiment: FRET or BRET; acceptor photobleaching FRET in living HeLa cells cotransfected with CFP (donor) and YFP (receptor) plasmids; region of interest bleached at 515 nm for 20 s; laser confocal microscope

Sequence of UniProt Q8WWX9 (Q8WWX9 28-145): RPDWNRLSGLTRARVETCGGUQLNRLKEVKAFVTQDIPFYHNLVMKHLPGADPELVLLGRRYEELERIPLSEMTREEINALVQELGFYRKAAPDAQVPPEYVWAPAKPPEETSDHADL

FRET efficiency: 27.3% | distance between donor and receptor (FRET): 6.35 nm
Substance: YFP-Gal-1 (from UniProt P09382 1-135) (natural protein)
